Assay results: PMC8950404, “Signal Sequence-Dependent Orientation of Signal Peptide Fragments to Exosomes” (International Journal of Molecular Sciences, 2022)

Biological target: T1, recombinant human calmodulin (CALM) 1/2/3 (human, UniProt P0DP23 1-149)
T1 construct: human calmodulin, printed as calmodulin (CALM) 1/2/3; also called His-tagged CALM; source: bought: Abcam; not shown: His tag, N-terminal, kept
Assay: pull-down; hAPP SP (9–17) 500 nM mixed with N-terminally His-tagged CALM 1 μg/mL in xTractor buffer, with or without CaCl2 500 μM, overnight at 4 °C; CALM separated on a Capturem His-Tagged Purification Miniprep; bound peptides read by MALDI-TOF MS/MS
Conditions: both partners purified

| binding result | Binder |
| --- | --- |
| binds | LLAAWTARA (residues 9-17 of the signal peptide of human amyloid precursor protein (APP); also called C-terminal fragment of APP SP; source: synthetic peptide, bought: Eurofins Scientific) [hAPP SP (9–17)] |
| binds | LAAWTARA (stretch of the signal peptide of human amyloid precursor protein (APP), one residue shorter than hAPP SP (9–17); also called exosomal SP fragment) [C-terminal fragment of APP SP (LAAWTARA)] |
